Test results reported in the supplement of paper PMC10126150.
± gives the standard deviation of the averaged measurements.

Test system: ATP
Assay: switch fluorescence ratio, 500 uM ATP over buffer (Cy3 cluster intensity, sum of 5 cycles each) (fold (ratio)); higher = stronger signal-on switching upon ATP binding; sequences stand for … in TCGTCGGCAGCGTCAGATGTGTATAAGAGACAGTTTTTTTTTTTTTTTTTTTTTTTTT…TC
Conditions: aptamer strand: ATP DNA aptamer (quencher-CACCTGGGGGAGTATTGCGGAGGAAGG + anchor), 100 nM annealed; ATP concentration: 500 uM
Outline: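 Cy3-labelled switching-strand clusters on a modified Illumina MiSeq flow-cell were annealed to 100 nM quencher-labelled ATP aptamer, imaged in selection buffer, then imaged after 15 min with 500 uM ATP at 22 °C. Five buffer/ATP cycles ran, with NaOH stripping and re-annealing between them. The fluorescence ratio is summed target-cycle over summed buffer-cycle Cy3 intensity per cluster, averaged per switch-domain sequence. Clusters outside 100-1000 RFU were excluded.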
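Further: ATP exposure 15 min at 22 °C before imaging.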

| Sequence | switch fluorescence ratio |
| --- | --- |
| GCTGGCACAC | 1.04 ± 0.021 |
| GCTGGCAGCC | 1.01 ± 0.069 |
| GCTGGCGTCA | 1 ± 0.05 |
| GCTGGGAGTC | 1 ± 0.029 |
| GCTGGGGCAA | 1.01 ± 0.037 |
| GCTGGGGCCC | 0.9977 ± 0.005 |
| GCTGGGGCGT | 0.9851 ± 0.005 |
| GCTGGGGCTT | 0.991 ± 0.014 |
| GCTGGGGGTG | 1.01 ± 0.012 |
| GCTGGGTCTT | 1.03 ± 0.023 |
| GCTGGGTGCT | 0.984 ± 0.015 |
| GCTGGTGCTC | 1.06 ± 0.05 |
| GCTGGTTGCT | 0.994 ± 0.039 |
| GCTGGTTGGC | 0.964 ± 0.016 |
| GCTGTAACGA | 0.998 ± 0.017 |
| GCTGTAAGGC | 1.01 ± 0.039 |
| GCTGTCAGCG | 1.02 ± 0.024 |
| GCTGTCTGGT | 1.0181 ± 0.00043 |
| GCTGTGAGTT | 0.9821 ± 0.006 |
| GCTGTTGGAG | 1.02 ± 0.031 |
| GCTGTTGGGA | 0.9968 ± 0.0078 |
| GCTGTTGGTG | 1.002 ± 0.0037 |
| GCTGTTTGTA | 0.999 ± 0.03 |

| Sequence | switch fluorescence ratio |
| --- | --- |
| GCTGTTTTTC | 0.966 ± 0.03 |
| GCTGTTTTTT | 1 ± 0.044 |
| GCTTAAGAGG | 1.03 ± 0.017 |
| GCTTAATGT | 1 ± 0.083 |
| GCTTATGAAC | 1.019 ± 0.0045 |
| GCTTATTGTT | 0.99355 ± 0.00014 |
| GCTTCAGGGG | 1.09 ± 0.12 |
| GCTTCCAGGG | 1.14 ± 0.094 |
| GCTTCCGGCC | 1.15 ± 0.054 |
| GCTTCCTTTT | 1.01 ± 0.022 |
| GCTTCGGGGC | 1.01 ± 0.016 |
| GCTTCTACAG | 1.047 ± 0.01 |
| GCTTCTCACA | 0.981 ± 0.028 |
| GCTTCTGGGG | 1.03 ± 0.028 |
| GCTTCTTGGC | 0.967 ± 0.034 |
| GCTTGAGATT | 0.986 ± 0.015 |
| GCTTGCAGTG | 0.995 ± 0.033 |
| GCTTGCCAAA | 0.998 ± 0.0083 |
| GCTTGCCTAG | 0.962 ± 0.038 |
| GCTTGGATCG | 0.993 ± 0.022 |
| GCTTGGCTAT | 0.989 ± 0.022 |
| GCTTGGGGAT | 1.01 ± 0.033 |
| GCTTGGGGCA | 0.967 ± 0.024 |

| Sequence | switch fluorescence ratio |
| --- | --- |
| GCTTGGGGTC | 0.953 ± 0.011 |
| GCTTGGGTTC | 1 ± 0.018 |
| GCTTGGTCAT | 0.9714 ± 0.0035 |
| GCTTGTACAT | 0.982 ± 0.018 |
| GCTTGTATTA | 0.985 ± 0.016 |
| GCTTGTCGGC | 0.99 ± 0.035 |
| GCTTGTGCTG | 0.978 ± 0.053 |
| GCTTGTTATG | 0.9931 ± 0.007 |
| GCTTGTTGTT | 0.995 ± 0.017 |
| GCTTTAAAAT | 1.004 ± 0.0088 |
| GCTTTAATTC | 1.029 ± 0.0049 |
| GCTTTAATTG | 1.004 ± 0.0097 |
| GCTTTAATTT | 1.07 ± 0.045 |
| GCTTTACACC | 1.19 ± 0.092 |
| GCTTTAGCAG | 1.03 ± 0.02 |
| GCTTTAGGTA | 0.9843 ± 0.0058 |
| GCTTTATCGG | 0.965 ± 0.025 |
| GCTTTATGAA | 1.02 ± 0.054 |
| GCTTTCACGA | 0.9879 ± 0.0036 |
| GCTTTCCAGA | 0.9949 ± 0.0059 |
| GCTTTCCGGC | 1.02 ± 0.078 |
| GCTTTTAGGT | 0.968 ± 0.06 |
| GCTTTTGCTG | 0.997 ± 0.013 |

| Sequence | switch fluorescence ratio |
| --- | --- |
| GCTTTTGGCT | 0.992 ± 0.023 |
| GCTTTTTGCT | 1.012 ± 0.0054 |
| GCTTTTTTAC | 1.38 ± 0.32 |
| GGAAAAAAGT | 1.02 ± 0.047 |
| GGAAAAAGAT | 1.04 ± 0.018 |
| GGAAAAAGCC | 0.9562 ± 0.0042 |
| GGAAAATAGG | 0.977 ± 0.061 |
| GGAAAATGGG | 1.02 ± 0.065 |
| GGAAAGAAGG | 1 ± 0.032 |
| GGAAAGACCG | 1 ± 0.012 |
| GGAAATATAG | 0.989 ± 0.012 |
| GGAACAGGTG | 3.49 ± 2 |
| GGAACATCTG | 1.007 ± 0.0071 |
| GGAACATGGG | 1.004 ± 0.0024 |
| GGAACCAGGC | 1.12 ± 0.032 |
| GGAACCCAGA | 0.988 ± 0.021 |
| GGAACCGGTA | 1.02 ± 0.012 |
| GGAACGTGGT | 0.971 ± 0.017 |
| GGAACTGTCT | 1.01 ± 0.013 |
| GGAACTGTGC | 0.948 ± 0.12 |
| GGAACTTGTG | 0.9732 ± 0.0075 |
| GGAAGAGGAG | 0.983 ± 0.014 |
| GGAAGCCACG | 1.06 ± 0.022 |

| Sequence | switch fluorescence ratio |
| --- | --- |
| GGAAGGAGAG | 0.986 ± 0.018 |
| GGAAGGAGAT | 1.003 ± 0.0093 |
| GGAAGGAGGC | 1.02 ± 0.088 |
| GGAAGGGAAA | 0.981 ± 0.029 |
| GGAAGGTATG | 1.02 ± 0.071 |
| GGAAGTGGTC | 1.01 ± 0.059 |
| GGAATAAATG | 1.021 ± 0.009 |
| GGAATACGTT | 1.08 ± 0.061 |
| GGAATCAGGA | 0.991 ± 0.011 |
| GGAATCCGTT | 1.027 ± 0.0025 |
| GGAATCTGAT | 0.996 ± 0.12 |
| GGAATCTTTT | 1.08 ± 0.085 |
| GGAATGAGGA | 0.99242 ± 0.0004 |
| GGAATGCTAT | 0.996 ± 0.013 |
| GGAATGGCTT | 0.999 ± 0.0091 |
| GGAATTGGAT | 1 ± 0.025 |
| GGAATTTAAT | 0.998 ± 0.0014 |
| GGACACAGGC | 1.01 ± 0.023 |
| GGACAGCGCG | 1 ± 0.07 |
| GGACATATTA | 1 ± 0.028 |
| GGACATTGG | 1.03 ± 0.02 |
| GGACCAAGTG | 1.03 ± 0.025 |
| GGACCCGCCG | 1.025 ± 0.0016 |

| Sequence | switch fluorescence ratio |
| --- | --- |
| GGACCCTAAC | 1.08 ± 0.062 |
| GGACCGGGGT | 0.966 ± 0.034 |
| GGACGAAGGG | 1.09 ± 0.018 |
| GGACGATTTG | 1.05 ± 0.054 |
| GGACGCATAA | 3.51 ± 1.3 |
| GGACGGGAAC | 1.13 ± 0.055 |
| GGACGGGGGG | 1.01 ± 0.056 |
| GGACGGGGTC | 1.01 ± 0.013 |
| GGACGGGGTT | 0.97 ± 0.019 |
| GGACGTCTGA | 1.02 ± 0.041 |
| GGACGTTGGT | 1.02 ± 0.022 |
| GGACTAGCTT | 1.03 ± 0.032 |
| GGACTATGCT | 0.962 ± 0.011 |
| GGACTATGGT | 0.981 ± 0.014 |
| GGACTCTGGG | 0.966 ± 0.058 |
| GGACTTAGAT | 1.02 ± 0.039 |
| GGACTTCTTG | 0.932 ± 0.045 |
| GGACTTTCGT | 0.993 ± 0.015 |
| GGACTTTTCA | 0.96 ± 0.014 |
| GGAGAAGAGA | 0.9875 ± 0.004 |
| GGAGAAGGGT | 0.9967 ± 0.0047 |
| GGAGACCTTT | 1.03 ± 0.041 |
| GGAGACGGTT | 1 ± 0.051 |

| Sequence | switch fluorescence ratio |
| --- | --- |
| GGAGACGTTA | 1.02 ± 0.052 |
| GGAGAGCGCG | 0.976 ± 0.067 |
| GGAGAGGACG | 1.07 ± 0.09 |
| GGAGAGGGCT | 1.01 ± 0.024 |
| GGAGAGGGGC | 0.996 ± 0.091 |
| GGAGAGGGGG | 0.982 ± 0.027 |
| GGAGAGGTTT | 1.05 ± 0.059 |
| GGAGATAGGT | 1.04 ± 0.038 |
| GGAGCCCGGT | 1.01 ± 0.029 |
| GGAGCCTGGT | 1.01 ± 0.022 |
| GGAGCGGGGG | 1.02 ± 0.014 |
| GGAGCTTTCA | 1.05 ± 0.088 |
| GGAGGAAAGT | 1 ± 0.029 |
| GGAGGAGAGG | 1.01 ± 0.04 |
| GGAGGAGCTG | 0.95 ± 0.042 |
| GGAGGAGTTT | 1.65 ± 0.92 |
| GGAGGCCATG | 0.967 ± 0.01 |
| GGAGGCGGGG | 1.08 ± 0.18 |
| GGAGGGACGG | 1.029 ± 0.009 |
